These results are taken from the RNAGym collection of RNA variant scans (doi:10.1073/pnas.2313332121).

The chains are these.
B1: TPR 5TU (parent)
chain: GGAUCUUCUCGAUCUAACAAAAAAGACAAAUCUGCCACAAAGCUUGAGAGCAUCUUCGGAUGCAGAGGCGGCAGCCUUCGGUGGCGCGAUAGCGCCAACGUUCUCAACUAUGACACGCAAAACGCGUGCUCCGUUGAAUGGAGUUUAUCAUG

Fewer inactive variants are shown than the library holds.

This data set covers variants of B1. As to the kind of experiment: polymerase ribozyme fitness, log enrichment relative to wild type (log ratio); higher = more active; in vitro selection for triplet polymerase activity. Summed up:
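Input and output libraries were sequenced on Illumina after a single in vitro selection round, run in triplicate on PCR-built, transcribed mutant libraries of each subunit of a heterodimeric triplet polymerase ribozyme. Selection annealed libraries to a biotinylated primer, the partner subunit and triplets, incubated them frozen at −7 °C, then gel-excised extended constructs for streptavidin-bead capture and RT-PCR. Genotypes with ≥10 input reads and ≥1 read per output were kept. Fitness is the logarithm, taken in base 2, of genotype enrichment divided by wild-type enrichment, using inverse-variance-weighted replicate averages.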
As for GGAUCUUCUCGAUCUAACAAAAAAGUCAAAUCUGCCACAAAGCUUGAGAGCAUCGUCGGAUGCAGAGGCGGCAGCCUUCGGUGGCGCGAUAGCGCCAACGUUCUCAACUAUGACACGCAAAACGCGUGCUCCGUUGAAUGGAGUUUAUCAUG [A26U U55G], the “polymerase ribozyme fitness (log ratio)” value was -1.36. With GGAUCUUCUCGAUCUAACAAAAAAGUCAAAUCUGCCACAAAGCUUGAGAGCAUCAUCGGAUGCAGAGGCGGCAGCCUUCGGUGGCGCGAUAGCGCCAACGUUCUCAACUAUGACACGCAAAACGCGUGCUCCGUUGAAUGGAGUUUAUCAUG [A26U U55A] the figure was -1.66; with GGAUCUUCUCGAUCUAACAAAAAAGUCAAAUCUGCCACAAAGCUUGAGAGCAUCUUCCGCUGCAGAGGCGGCAGCCUUCGGUGGCGCGAUAGCGCCAACAUUCUCAACUAUGACGCGCAAAACGCGUGCUCCGUUGAAUGGAGUUUAUCAUG [A26U G58C A60C G100A A115G], not above -4.2; with GGAUCUUCUCGAUCUAACAAAAAAGUCAAAUCUGCCACAAAGCUUGAGAGCAUGUUCGGAUGCAGAGGCGGCAGCCUUCGGUGGCGCGAUAGCGCCAACGUUCUCAACUAUGACACGCAAAACGCGUGCUCCGUUGAAUGGAGUUUAACAUG [A26U C54G U148A], not above -4.2.

As for GGAUCUUCUCGAUCUAACAAAAAAGUCAAAUCUGCCACAAAGCUUGAGAGCAUCUUCGGAUGCAGAGGUGGCAGCCUUCGGUGGCGCGAUAGCGCCAACGUUCUCAACUAUGACACGCAAAACGCGUGCUCCGUUGAAUGGAGUUUAUCAUG [A26U C69U], the “polymerase ribozyme fitness (log ratio)” value is -1.87. To GGAUCUUCUCGAUCUAACAAAAAAGUCAAAUCUUCCACAAAGCUUGAGAGCAUCUUCGGAUGCAGAGGCGGCAGCCUUCGGUGGCGCCAUAGCGCCAACGUUCUUAACUAUGACACGCAAAACGCGUGCACCGUUGAAUGGAGUUUAUCAUG [A26U G34U G88C C105U U130A] belongs not above -4.2; to GGAUCUUCUCGAUCUAACAAAAAAGUCAAAUCUGCCACAAAGCUUGAGAGCAUCUUCGGAUGCAGAGGCGGCAGCCUUCGGUCGCGCGAUAGCGCCAACGUUCUCAACUAUGACACGCAAAACGCGUACUCCGGAGAAUGGAGUUCAUCAUG [A26U G83C G128A U134G U135A U146C], not above -4.2.

As to GGAUCUUCUCGAUCUAACAAAAAAGUCAAAUCUGCCACAAAGCUUGAGAGCAUCUUCGGAUGCAGAGGCGGCAGCCUUCGGUGGCGCGAUAGCGCCAACGUUCUCAACUAUGACACGCAAAACGCGUGCUCCGUUGAAUGUAGGUUAUCAUG [A26U G141U U144G], the “polymerase ribozyme fitness (log ratio)” value was -3.78. With GGAUCUUCUCGAUCUAACAAAAAAGAAAAAUCUGCCACAAAGCUUGAGAGCGUCUUCGGAUGCAGAGGCGGCAGCCUUCGGUGGCGCGAUAGCGACAACGUUCUCAACUAUGACACGCAAAACGCGUGGUCCGUUGAAUUGUGUUUAUCAUG [C27A A52G C95A C129G G140U A142U] the figure was not above -4.2; with GGAUCUUCUCGAUCUAACAAAAAAGUCAAAUCUGCCACAAAGCUUGAGAGCAUCUUCGUAUGCAGAGGGGGCAGCCUUCGGUGGCGCGAUAGCGCCAACGUUCUCAACUAUGACACGCAAAACGCGUGCUCCGUUGAAUGGGGUUUAUCAUG [A26U G59U C69G A142G], -2.52; with GGAUCUUCUCGAUCUAACAAAAAAGUCAAAUCUGCCACAAAGCUUGAGAGCAUCUUCGGAUGCAGAGGCGGCAGCCUUCGGUGGCGCUAUAGCGCCAACGUUCUCAACUAUGACACGGAAAACGCGUGCUCCGUUGAAUGGACUUUAUCAUG [A26U G88U C118G G143C], not above -4.2. In the case of GGAUCUUCUCGAUCUAACAAAAAAGUCAAAUCUGCCACAAAGCUUGAGAGCAUCUUCGGAUGCAGAGGCGGCAGCCUUCGGUGGUGCGAUAGCGCUAACGUUCUCAACUAUGACACGCAAAACGCGUGCUCCGUUGAAUGGAUUUUAUCAUG [A26U C85U C96U G143U], the “polymerase ribozyme fitness (log ratio)” value was -3.94. To GGAUCUUCUCGAUCUAACAAAAAAGUCAAAUCUGCCACAAAGCUUGAGAGCAUCUUCGGAUGCAGAGGCGGCAGCCUUCGGUGGUGCGAUAGCGCCAACGUUCUCAACUAUGACACGCAAAACGCGUGCUCCGUUGAAUGGAGUUGAUCAUG [A26U C85U U146G] belongs -1.93.

As to GGAUCUUCUCGAUCUAACAAAAAAGUCAAAUCUGCCACAAAGCUUGAGACCAUCUUCGGAUGCAGAGGCGGCAGCCUUCGGUGGCGCGAUAGCGCCAACGUUCUAAACGAUGACACGCAAAACGCGUGUUCCGUUGAAUGGAGUUUAUCAUG [A26U G50C C105A U109G C129U], the “polymerase ribozyme fitness (log ratio)” value was not above -4.2. To GGAUCUUCUCGAUCUAACAAAAAAGUCAAAUCUGCCACAAAGCAUGAGAGCAUCUUCGGAUGCAGAGGCGGCAGCCUUCGGUGGCGCGAUAGAGCCAACGUUCUCAACUAUGACACGCAAAACGCGUGCUCCGUUGAAUGGCGUUUAUCAUG [A26U U44A C93A A142C] belongs not above -4.2; to GGAUCUUCUCGAUCUAACAAAAAAGUCAAAUCUGCCACAAAGCUUGAGAGCAUCGUCGGAUGCAGAGGCGGCAGCCUUCGGUGGCGCUAUAGCACCAACGUUCUCAACUAUGACACGCAAAACAGAUGCUCCGUUGAAUGGUGUUUAUCAUG [A26U U55G G88U G94A G124A C125G G126A A142U], not above -4.2. With GGAUCUUCUCGAUCUAACAAAAAAGUCAAAUCUGCCACAAAGCUUGAGAGCAUCUUCGGAUGCAGAGGCGGCAGCCUUCGGUGGCGCGAUAGCGCCAACGUUCUCAACUAUGACAUGCAAAACGCGUGCUCCGUUGAAUGAAGUUUAUCAUG [A26U C116U G141A] the figure was -1.75; with GGAUCUUCUCGAUCUAACAAAAAAGUCAAAUCUGCCACAAAGCUUGAGAGCAUCUUCGCAAGCAGAGGCGGCAGGCUUCGGUGGCGCGAUAGCGCCAACGUUCUCAACUAUGACACGCAAAACGCGUGCUCCGUUGACUGGAGUUUAUCAUG [A26U G59C U61A C75G A138C], not above -4.2. With GGAUCUUCUCGAUCUAACAAAAAAGUCAAAUCUGCCACAAACCUUGAGAUCAUCUUCGGAUGCAGAGGCGGCAGCCUUCGGUGGCGCGAUAGAGCCAACGUUCUCAACUAUGACUCCCAAAACGCGUGCUCCGUUGAAUGGAGUUUAUCAUG [A26U G42C G50U C93A A115U G117C] the figure was not above -4.2.
